Experimental data as given in PMC13254101.

Experiments:
[1] = molecular target: CrAPE1_(C247S), recombinant soluble domain of Chlamydomonas APE1 with C247S (Chlamydomonas reinhardtii); assay: SEC-MALS
[2] = molecular target: CrAPE1_(C128S), recombinant soluble domain of Chlamydomonas APE1 with C128S (Chlamydomonas reinhardtii); assay: SEC-MALS

Substance | stoichiometry N [1] | stoichiometry N [2]
CrAPE1_(C247S), recombinant soluble domain of Chlamydomonas APE1 with C247S (domain or fragment) | 2 | 
CrAPE1_(C128S), recombinant soluble domain of Chlamydomonas APE1 with C128S (domain or fragment) |  | 2
